Drawing on article doi:10.1101/2024.04.30.591854 (2024), this text covers Kd for two molecules.

The assay concerns the target HLA-Cw4-β2m complex refolded with peptide (human | ). Description: SPR.

B1: KIR2DL1-Fc fusion protein (Fc fusion)
chain: HEGVHRKPSLLAHPGRLVKSEETVILQCWSDVMFEHFLLHREGMFNDTLRLIGEHHDGVSKANFSISRMTQDLAGTYRCYGSVTHSPYQVSAPSDPLDIVIIGLYEKPSLSAQLGPTVLAGENVTLSCSSRSSYDMYHLSREGEAHERRLPAGPKVNGTFQADFPLGPATHGGTYRCFGSFHDSPYEWSKSSDPLLVSVTGNPSNSWPSPTEPSSKTGNPRHLH
On to B1, for which the Kd came out at 6 µM.

B2: KIR2DS1-Fc fusion protein (Fc fusion)
chain: HEGVHRKPSLLAHPGRLVKSEETVILQCWSDVMFEHFLLHREGMFNDTLRLIGEHHDGVSKANFSISRMKQDLAGTYRCYGSVTHSPYQLSAPSDPLDIVIIGLYEKPSLSAQPGPTVLAGENVTLSCSSRSSYDMYHLSREGEAHERRLPAGTKVNGTFQANFPLGPATHGGTYRCFGSFRDSPYEWSKSSDPLLVSVTGNPSNSWPSPTEPSSETGNPRHLH
Molecule B2 came in with a Kd of 23 µM.
